# B1: MBP (maltose binding protein) fused to wild type HIF Asparagine Hydroxylase (HNH) (protein)
# chain: MAATAAEAVASGSGEPREEAGALGPAWDESQLRSYSFPTRPIPRLSQSDPRAEELIENEEPVVLTDTNLVYPALKWDLEYLQENIGNGDFSVYSASTHKFLYYDEKKMANFQNFKPRSNREEMKFHEFVEKLQDIQQRGGEERLYLQQTLNDTVGRKIVMDFLGFNWNWINKQQGKRGWGQLTSNLLLIGMEGNVTPAHYDEQQNFFAQIKGYKRCILFPPDQFECLYPYPVHHPCDRQSQVDFDNPDYERFPNFQNVVGYETVVGPGDVLYIPMYWWHHIESLLNGGITITVNFWYKGAPTPKRIEYPLKAHQKVAIMRNIEKMLGEALGNPQEVGPLLNTMIKGRYN
# Legend:
# [1] = target: recombinant C-terminal 90 amino acids of human HIF-1a, wild type, Q16665
# [2] = target: recombinant C-terminal 90 amino acids of human HIF-1a, C of the hydroxylation motif changed to alanine, Q16665
# [3] = target: recombinant C-terminal 90 amino acids of human HIF-1a, D of the hydroxylation motif changed to alanine, Q16665
# [4] = target: recombinant C-terminal 90 amino acids of human HIF-1a, valine preceding the target asparagine changed to alanine, Q16665
# [5] = target: recombinant C-terminal 90 amino acids of human HIF-1a, conserved G 5 amino acids C-terminal to the target asparagine changed to alanine, Q16665
# [6] = target: recombinant C-terminal 90 amino acids of human HIF-1a, glutamic acid (E) of the hydroxylation motif changed to alanine, Q16665
# [7] = target: recombinant C-terminal 90 amino acids of human HIF-1a, tyrosine (Y) of the hydroxylation motif changed to alanine, Q16665
# Chain of recombinant C-terminal 90 amino acids of human HIF-1a, tyrosine (Y) of the hydroxylation motif changed to alanine, Q16665 (Q16665 737-826 Y798A): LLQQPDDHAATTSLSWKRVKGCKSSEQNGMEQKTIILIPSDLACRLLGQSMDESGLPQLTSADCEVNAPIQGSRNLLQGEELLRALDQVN
# Chain of recombinant C-terminal 90 amino acids of human HIF-1a, valine preceding the target asparagine changed to alanine, Q16665 (Q16665 other isoform, or with tags, fused parts or gaps): as the sequence (Q16665 737-826 Y798A) above, with A62Y, V66A counted along it
# Chain of recombinant C-terminal 90 amino acids of human HIF-1a, glutamic acid (E) of the hydroxylation motif changed to alanine, Q16665 (Q16665 other isoform, or with tags, fused parts or gaps): as the sequence (Q16665 737-826 Y798A) above, with A62Y, E65A counted along it
# Chain of recombinant C-terminal 90 amino acids of human HIF-1a, D of the hydroxylation motif changed to alanine, Q16665 (Q16665 737-826 D799A): as the sequence (Q16665 737-826 Y798A) above, with A62Y, D63A counted along it
# Chain of recombinant C-terminal 90 amino acids of human HIF-1a, wild type, Q16665 (Q16665 737-826): as the sequence (Q16665 737-826 Y798A) above, with A62Y counted along it
# Chain of recombinant C-terminal 90 amino acids of human HIF-1a, conserved G 5 amino acids C-terminal to the target asparagine changed to alanine, Q16665 (Q16665 other isoform, or with tags, fused parts or gaps): as the sequence (Q16665 737-826 Y798A) above, with A62Y, G72A counted along it
# Chain of recombinant C-terminal 90 amino acids of human HIF-1a, C of the hydroxylation motif changed to alanine, Q16665 (Q16665 737-826 C800A): as the sequence (Q16665 737-826 Y798A) above, with A62Y, C64A counted along it
protein,measurement,setting,value
B1,hydroxylation assessed by counting liberated 14CO2,[1],the degree of hydroxylation for each mutant normalised to the level observed for the wild type HIF-1α CAD sequence
same,hydroxylation in an in vitro hydroxylation assay,[2],an up to 50% decrease in hydroxylation of the target aspargine
same,hydroxylation in an in vitro hydroxylation assay,[3],an up to 50% decrease in hydroxylation of the target aspargine
same,hydroxylation in an in vitro hydroxylation assay,[4],altering this valine to alanine results in very low levels of hydroxylation
same,hydroxylation in an in vitro hydroxylation assay,[5],an approximately 50% decrease in hydroxylation
same,hydroxylation in an in vitro hydroxylation assay,[6],The glutamic acid (E) residue is more important or efficient hydroxylation than D or C
same,hydroxylation in an in vitro hydroxylation assay,[7],Substituting alanine in place of tyrosine (Y) has little effect

# — patent publication US20050064533
